Measured values published in article PMC4344524, “Combinatorial recognition of a complex telomere repeat sequence by the Candida parapsilosis Cdc13AB heterodimer”.

Key:
[1] = target: CpCdc13AB-DBD complex (Candida parapsilosis) (UniProt G8B7U9+G8B5A5); assay: EMSA; settings: stated as full-length Kd (~10 nM) at least 100-fold lower; weak shift detected; EMSA: 50 mM Tris-HCl pH 7.5, 2 mM MgCl2, 10 mM NaCl, 1 mM spermidine, 1 mM DTT, 200 ng/ul poly(dI-dC), 5% glycerol, 25 C 60 min; crosslinking: same buffer …
[2] = target: T1, CpCdc13AB heterodimer: His6-SUMO-Cdc13A + GST-Cdc13B-FLAG (Candida parapsilosis, UniProt G8B7U9;G8B5A5 1-456;1-475); assay: EMSA; apparent Kd; EMSA: 50 mM Tris-HCl pH 7.5, 2 mM MgCl2, 10 mM NaCl, 1 mM spermidine, 1 mM DTT, 200 ng/ul poly(dI-dC), 5% glycerol, 25 C 60 min; crosslinking: same buffer, 22 C 1 h, then UV on ice 20 min; settings: protein: recombinant; tags: His6-SUMO (A); GST and FLAG (B); copies: 1;1
T1 sequence 1: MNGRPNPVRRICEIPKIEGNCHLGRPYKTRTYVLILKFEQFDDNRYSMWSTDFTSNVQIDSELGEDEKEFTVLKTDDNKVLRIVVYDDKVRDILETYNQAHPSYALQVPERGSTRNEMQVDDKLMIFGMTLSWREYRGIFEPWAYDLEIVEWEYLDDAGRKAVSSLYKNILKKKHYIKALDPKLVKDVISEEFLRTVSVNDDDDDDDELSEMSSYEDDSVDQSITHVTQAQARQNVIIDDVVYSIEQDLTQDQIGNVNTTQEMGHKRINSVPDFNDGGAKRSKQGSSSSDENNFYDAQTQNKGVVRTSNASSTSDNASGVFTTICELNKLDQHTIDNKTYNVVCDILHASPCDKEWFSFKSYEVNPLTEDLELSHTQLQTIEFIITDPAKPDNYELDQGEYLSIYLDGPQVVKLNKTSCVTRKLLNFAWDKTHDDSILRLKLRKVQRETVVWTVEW
T1 sequence 2: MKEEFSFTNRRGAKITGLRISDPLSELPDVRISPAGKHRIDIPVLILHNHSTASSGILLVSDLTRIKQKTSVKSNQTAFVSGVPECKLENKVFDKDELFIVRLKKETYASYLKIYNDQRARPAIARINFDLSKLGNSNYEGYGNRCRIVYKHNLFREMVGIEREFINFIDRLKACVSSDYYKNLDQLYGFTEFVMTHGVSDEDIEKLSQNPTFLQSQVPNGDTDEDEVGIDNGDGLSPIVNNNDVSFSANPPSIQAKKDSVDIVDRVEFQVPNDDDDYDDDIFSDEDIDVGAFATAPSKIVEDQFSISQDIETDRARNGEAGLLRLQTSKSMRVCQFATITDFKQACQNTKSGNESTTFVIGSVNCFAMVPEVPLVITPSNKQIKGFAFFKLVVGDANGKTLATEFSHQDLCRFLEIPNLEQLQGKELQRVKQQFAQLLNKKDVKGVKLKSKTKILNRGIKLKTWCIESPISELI

[3] = target: T1, CpCdc13AB heterodimer: His6-SUMO-Cdc13A …; assay: EMSA; EMSA: 50 mM Tris-HCl pH 7.5, 2 mM MgCl2, 10 mM NaCl, 1 mM spermidine, 1 mM DTT, 200 ng/ul poly(dI-dC), 5% glycerol, 25 C 60 min; crosslinking: same buffer, 22 C 1 h, then UV on ice 20 min; settings: protein: recombinant; tags: His6-SUMO (A); GST and FLAG (B); copies: 1;1
[4] = target: T1, CpCdc13AB heterodimer: His6-SUMO-Cdc13A …; assay: competition; vs CpG2 probe; EMSA: 50 mM Tris-HCl pH 7.5, 2 mM MgCl2, 10 mM NaCl, 1 mM spermidine, 1 mM DTT, 200 ng/ul poly(dI-dC), 5% glycerol, 25 C 60 min; crosslinking: same buffer, 22 C 1 h, then UV on ice 20 min; settings: protein: recombinant; tags: His6-SUMO (A); GST and FLAG (B); copies: 1;1
[5] = target: T1, CpCdc13AB heterodimer: His6-SUMO-Cdc13A …; assay: competition; no effect of truncation; EMSA: 50 mM Tris-HCl pH 7.5, 2 mM MgCl2, 10 mM NaCl, 1 mM spermidine, 1 mM DTT, 200 ng/ul poly(dI-dC), 5% glycerol, 25 C 60 min; crosslinking: same buffer, 22 C 1 h, then UV on ice 20 min; settings: protein: recombinant; tags: His6-SUMO (A); GST and FLAG (B); copies: 1;1
[6] = target: T1, CpCdc13AB heterodimer: His6-SUMO-Cdc13A …; assay: competition; inactive as competitor; EMSA: 50 mM Tris-HCl pH 7.5, 2 mM MgCl2, 10 mM NaCl, 1 mM spermidine, 1 mM DTT, 200 ng/ul poly(dI-dC), 5% glycerol, 25 C 60 min; crosslinking: same buffer, 22 C 1 h, then UV on ice 20 min; settings: protein: recombinant; tags: His6-SUMO (A); GST and FLAG (B); copies: 1;1
[7] = target: T1, CpCdc13AB heterodimer: His6-SUMO-Cdc13A …; assay: competition; affinity unaffected; EMSA: 50 mM Tris-HCl pH 7.5, 2 mM MgCl2, 10 mM NaCl, 1 mM spermidine, 1 mM DTT, 200 ng/ul poly(dI-dC), 5% glycerol, 25 C 60 min; crosslinking: same buffer, 22 C 1 h, then UV on ice 20 min; settings: protein: recombinant; tags: His6-SUMO (A); GST and FLAG (B); copies: 1;1
[8] = target: T1, CpCdc13AB heterodimer: His6-SUMO-Cdc13A …; assay: competition; no effect; EMSA: 50 mM Tris-HCl pH 7.5, 2 mM MgCl2, 10 mM NaCl, 1 mM spermidine, 1 mM DTT, 200 ng/ul poly(dI-dC), 5% glycerol, 25 C 60 min; crosslinking: same buffer, 22 C 1 h, then UV on ice 20 min; settings: protein: recombinant; tags: His6-SUMO (A); GST and FLAG (B); copies: 1;1
[9] = target: T1, CpCdc13AB heterodimer: His6-SUMO-Cdc13A …; assay: UV photo-crosslinking; mostly Cdc13B adducts; EMSA: 50 mM Tris-HCl pH 7.5, 2 mM MgCl2, 10 mM NaCl, 1 mM spermidine, 1 mM DTT, 200 ng/ul poly(dI-dC), 5% glycerol, 25 C 60 min; crosslinking: same buffer, 22 C 1 h, then UV on ice 20 min; settings: protein: recombinant; tags: His6-SUMO (A); GST and FLAG (B); copies: 1;1; label: 32P
[10] = target: T1, CpCdc13AB heterodimer: His6-SUMO-Cdc13A …; assay: UV photo-crosslinking; lower product level than IO-1 and IO-3; EMSA: 50 mM Tris-HCl pH 7.5, 2 mM MgCl2, 10 mM NaCl, 1 mM spermidine, 1 mM DTT, 200 ng/ul poly(dI-dC), 5% glycerol, 25 C 60 min; crosslinking: same buffer, 22 C 1 h, then UV on ice 20 min; settings: protein: recombinant; tags: His6-SUMO (A); GST and FLAG (B); copies: 1;1; label: 32P
[11] = target: T1, CpCdc13AB heterodimer: His6-SUMO-Cdc13A …; assay: UV photo-crosslinking; Cdc13A adducts; EMSA: 50 mM Tris-HCl pH 7.5, 2 mM MgCl2, 10 mM NaCl, 1 mM spermidine, 1 mM DTT, 200 ng/ul poly(dI-dC), 5% glycerol, 25 C 60 min; crosslinking: same buffer, 22 C 1 h, then UV on ice 20 min; settings: protein: recombinant; tags: His6-SUMO (A); GST and FLAG (B); copies: 1;1; label: 32P
[12] = target: T1, CpCdc13AB heterodimer: His6-SUMO-Cdc13A …; assay: competition; vs CpG2 probe; EMSA: 50 mM Tris-HCl pH 7.5, 2 mM MgCl2, 10 mM NaCl, 1 mM spermidine, 1 mM DTT, 200 ng/ul poly(dI-dC), 5% glycerol, 25 C 60 min; crosslinking: same buffer, 22 C 1 h, then UV on ice 20 min; settings: protein: recombinant; tags: His6-SUMO (A); GST and FLAG (B); copies: 1;1; remark: listed apart in the source

Work on ATTATACTGAGGTCCGGATGTTG [CpG1] yielded a Kd [1] greater than 1000 nM.

In the case of ATTATACTGAGGTCCGGATGTTGATTATACTGAGGTCCGGATGTTG (ssDNA) [CpG2], the Kd [2] is reported as roughly 7.07 nM.

In the case of ATTATACTGAGGTCCGGATGTTG (ssDNA) [CpG1], the Kd [3] is reported as roughly 10 nM.

GTGGGTGTGTGGGTGTGTGGGTGTGTGGGTGTGT (ssDNA) [ScTG34]: no binding [4].

CCGGATGTTGATTATACTGAGGT (ssDNA) [CpG1b]: no binding [4].

TACTGAGGTCCGGATGTTG (ssDNA) [CpG1-Δ1]: binds [5].

ATTATACTGAGGTCCGGAT (ssDNA) [CpG1-Δ4]: no binding [6].

CGATTACTGAGGTCCGGATGTTG (ssDNA) [CpG1-Ct1]: binds [7].

ATTACATTGAGGTCCGGATGTTG (ssDNA) [CpG1-Ct2]: binds [8].

ATTATACTGAGGTCCGGATGTCA (ssDNA) [CpG1-Ct4]: binds [7].

ATTATACTGAGGTCCGGATGTTG (ssDNA, 5-iodo-dU at T8 of CpG1) [IO-1]: binds [9].

ATTATACTGAGGTCCGGATGTTG (ssDNA, 5-iodo-dU at T13 of CpG1) [IO-2]: binds [10].

ATTATACTGAGGTCCGGATGTTG (ssDNA, 5-iodo-dU at T19 of CpG1) [IO-3]: binds [11].

For CTGATGTTCTTTAGGGAGGTACTGATGTTCTTTAGGGAGGTA (ssDNA) [ClG2], the binding signal [12] was ~20 fold higher concentration for 50% inhibition.

GATCATTGGTGTACGGATGTCACGATCATTGGTGTACGGATGTCAC (ssDNA) [CtG2]: no binding [4].
